In article PMC4506539, “Crystallographic structure of a small molecule SIRT1 activator-enzyme complex” (Nature Communications, 2015):
Each block holds one binder with its values, some of them ahead of it.

Key:
[1] = biological target: T1, hSIRT1 catalytic core, residues 229–516 (human, UniProt Q96EB6 229-516); experiment: cell-based or functional assay
T1 sequence (looked up): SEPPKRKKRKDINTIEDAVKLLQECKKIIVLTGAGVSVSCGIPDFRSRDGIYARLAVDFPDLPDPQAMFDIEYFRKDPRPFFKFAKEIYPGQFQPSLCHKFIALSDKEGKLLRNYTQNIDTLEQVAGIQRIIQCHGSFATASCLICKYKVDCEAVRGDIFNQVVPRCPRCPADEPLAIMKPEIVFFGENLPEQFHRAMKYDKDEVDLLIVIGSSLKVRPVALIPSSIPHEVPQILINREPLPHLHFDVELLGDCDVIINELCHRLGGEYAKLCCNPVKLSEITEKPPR

full-length human SIRT1 = biological target: T2, full-length human SIRT1 (human, UniProt Q96EB6 1-747); experiment: HDX-MS; 0.77 mg/ml full-length SIRT1 ± 3.88 mM Ac-p53(W5) ± 192 μM STAC 1 in 1.9% DMSO, mixed 1:1 with 100 mM phosphate pH read 7.0 in D2O; 0 °C, 15-5,000 s; settings: both partners purified
T2 construct: human SIRT1, full length, 747 amino acids; also called hSIRT1; wild-type hSIRT1
T2 sequence (looked up): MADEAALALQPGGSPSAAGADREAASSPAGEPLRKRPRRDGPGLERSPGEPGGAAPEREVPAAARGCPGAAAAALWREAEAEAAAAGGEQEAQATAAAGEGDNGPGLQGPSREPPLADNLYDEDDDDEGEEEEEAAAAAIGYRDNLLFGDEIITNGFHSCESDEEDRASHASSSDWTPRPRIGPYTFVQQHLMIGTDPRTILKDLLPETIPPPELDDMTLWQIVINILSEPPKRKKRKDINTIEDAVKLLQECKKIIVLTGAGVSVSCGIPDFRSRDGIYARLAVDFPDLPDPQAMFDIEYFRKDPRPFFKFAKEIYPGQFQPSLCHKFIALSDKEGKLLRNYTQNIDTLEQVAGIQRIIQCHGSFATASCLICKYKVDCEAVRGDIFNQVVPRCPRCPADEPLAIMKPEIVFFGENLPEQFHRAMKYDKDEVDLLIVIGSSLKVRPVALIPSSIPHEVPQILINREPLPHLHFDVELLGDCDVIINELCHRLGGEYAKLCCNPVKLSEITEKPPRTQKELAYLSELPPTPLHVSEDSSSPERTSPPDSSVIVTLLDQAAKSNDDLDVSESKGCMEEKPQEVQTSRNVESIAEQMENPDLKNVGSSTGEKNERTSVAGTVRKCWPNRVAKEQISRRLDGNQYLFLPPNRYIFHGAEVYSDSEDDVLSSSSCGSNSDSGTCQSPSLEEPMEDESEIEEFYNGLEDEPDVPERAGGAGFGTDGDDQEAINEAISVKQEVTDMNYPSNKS

deacetylase activity of hSIRT1cd after addition of the CTR peptide, relative to full-length hSIRT1 (∼15% without the peptide) [1]: 80 % of the activity of full-length hSIRT1
Binder: QYLFLPPNRYIFHGAEVYSDSEDDV (peptide, UniProt Q96EB6 641-665, looked up) [human C-terminal regulatory segment (CTR) peptide of SIRT1]

binding result (full-length human SIRT1): binds
B1: Ac-p53(W5) (Ac-RHKKAcW-NH2) (peptide)
peptide: Ac-RHKK(Ac)W-NH2
notes: p53-based peptide Ac-RHKKAcW-NH2; also called Trp-5mer; p53-derived peptide substrate; source: synthetic peptide, bought: Biopeptide
